Laboratory results taken from patent US20180155451A1 (published 2018).
Read-outs that look alike come from different tables or passages of the source.

T1: FcgRIIa H (human, UniProt P12318 34-217)
T1 construct: extracellular domain; also called FcγRIIa H; FcγRIIa type H; not shown: His tag attached to the C terminus
T1 sequence (looked up): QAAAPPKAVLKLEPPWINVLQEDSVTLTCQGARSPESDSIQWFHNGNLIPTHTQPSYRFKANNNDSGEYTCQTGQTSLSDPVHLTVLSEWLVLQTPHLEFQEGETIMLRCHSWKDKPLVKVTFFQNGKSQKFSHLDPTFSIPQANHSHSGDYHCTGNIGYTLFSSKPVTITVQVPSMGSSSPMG

T2: FcgRIIa R (human, UniProt P12318 34-217)
T2 construct: extracellular domain; also called FcγRIIa R; FcγRIIa type R; not shown: His tag attached to the C terminus
T2 sequence (looked up): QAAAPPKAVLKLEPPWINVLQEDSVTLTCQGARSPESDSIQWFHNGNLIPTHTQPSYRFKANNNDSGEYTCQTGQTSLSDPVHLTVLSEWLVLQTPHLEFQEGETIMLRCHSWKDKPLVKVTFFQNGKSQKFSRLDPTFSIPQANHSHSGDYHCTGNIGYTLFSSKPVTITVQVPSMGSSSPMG

T3: FcgRIIb (human, UniProt P31994 43-217)
T3 construct: extracellular domain; Expressed in FreeStyle293 cells and purified; used as analyte in Biacore; also called FcγRIIb; CD32B; not shown: His tag attached to the C terminus
T3 sequence (looked up): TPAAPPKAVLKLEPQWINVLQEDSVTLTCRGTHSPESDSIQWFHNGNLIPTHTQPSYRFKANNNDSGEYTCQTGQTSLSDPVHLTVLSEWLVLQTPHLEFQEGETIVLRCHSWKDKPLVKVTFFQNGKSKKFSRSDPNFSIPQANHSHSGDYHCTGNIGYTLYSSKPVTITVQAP


Legend:
Assay in all cases: SPR (Biacore), antibody captured on chip, FcgR extracellular domain as analyte
[1] = molecular target: T1, FcgRIIa H
[2] = molecular target: T4, FcgRIIIa V (human, UniProt P08637 17-208)
T4 construct: extracellular domain; also called FcγRIIIa V; not shown: His tag attached to the C terminus
T4 sequence (P08637 17-208 F176V limits assumed): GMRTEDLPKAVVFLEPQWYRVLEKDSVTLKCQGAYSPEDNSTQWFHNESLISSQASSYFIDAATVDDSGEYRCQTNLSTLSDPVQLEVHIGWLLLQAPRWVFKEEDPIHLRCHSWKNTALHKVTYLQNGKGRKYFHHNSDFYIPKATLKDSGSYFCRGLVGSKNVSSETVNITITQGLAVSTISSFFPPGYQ

[3] = molecular target: T5, FcgRIa (human, UniProt P12314 16-292)
T5 construct: extracellular domain; Expressed in FreeStyle293 cells and purified; used as analyte in Biacore; also called FcγRIa; FcγRI; not shown: His tag attached to the C terminus
T5 sequence (P12314 16-292): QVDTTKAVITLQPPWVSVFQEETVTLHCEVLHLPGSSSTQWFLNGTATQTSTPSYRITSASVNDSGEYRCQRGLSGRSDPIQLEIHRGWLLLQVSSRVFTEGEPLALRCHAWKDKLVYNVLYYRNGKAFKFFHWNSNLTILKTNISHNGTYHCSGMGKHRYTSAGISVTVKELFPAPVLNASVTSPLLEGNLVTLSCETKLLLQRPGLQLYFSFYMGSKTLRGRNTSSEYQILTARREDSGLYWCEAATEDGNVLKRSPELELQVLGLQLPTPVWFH

[4] = molecular target: T2, FcgRIIa R
[5] = molecular target: T6, FcgRIIIa F (human, UniProt P08637 17-208)
T6 construct: extracellular domain; also called FcγRIIIa F; not shown: His tag attached to the C terminus
T6 sequence (P08637 17-208): as the sequence (P08637 17-208 F176V limits assumed) above, with V160F counted along it

[6] = molecular target: T3, FcgRIIb
[7] = molecular target: T1, FcgRIIa H; remark: listed apart in the source
Description: (§1) Specifically, H240-Kn120 (SEQ ID NO: 99) resulting from introduction of S239M into H240-Kn067 and H240-Kn126 (SEQ ID NO: 100) resulting from introduction of Y235Q into H240-Kn120 were prepared according to the method described in Reference Example 1. […] Those described above were assayed for the binding to each FcgR according to the method described in Reference Example 8.
(§2) Analysis of interaction between obj ective antibody and the FcγR was carried out using Biacore T100 (GE Healthcare), Biacore T200, Biacore A100, and Biacore 4000. HBS-EP+ (GE Healthcare) was used as the running buffer, and the measurement temperature was set to 25° C. Chips produced by immobilizing the antigen peptide by the amine coupling method to a Series S sensor Chip CM5 (GE Healthcare), chips produced by allowing preliminarily biotinylated antigen peptides to interact with and immobilize onto a Series S Sensor Chip SA (certified) (GE Healthcare), chips produced by immobilizing Protein L (ACTIGEN, BioVision) to Series S Sencor Chip CM5 (GE Healthcare), or chips produced by immobilizing Protein A/G (Thermo Scientific) to Series S Sencor Chip CM5 (GE Healthcare) were used. Antibodies of interest were captured onto these chips, and allowed to interact to each FcγR diluted with running buffer. To regenerate and repeatedly use the chip, the antibodies captured onto the chip were washed off by reacting 10 mM glycine-HCl, pH 1.5.

[8] = molecular target: T4, FcgRIIIa V; remark: listed apart in the source
Description: as §1, §2

[9] = molecular target: T5, FcgRIa; remark: listed apart in the source
Description: as §1, §2

[10] = molecular target: T2, FcgRIIa R; remark: listed apart in the source
Description: as §1, §2

[11] = molecular target: T6, FcgRIIIa F; remark: listed apart in the source
Description: as §1, §2

[12] = molecular target: T3, FcgRIIb; remark: listed apart in the source
Description: as §1, §2

[13] = molecular target: T1, FcgRIIa H; remark: listed apart in the source
Description: (§3) H240-Kn113 (SEQ ID NO: 92) resulting from introduction of Y234E and Y235N into H240-Kn072, H240-Kn115 (SEQ ID NO: 93) resulting from introduction of S239M into H240-Kn072, and H240-Kn125 (SEQ ID NO: 94) resulting from introduction of Y235Q and S239M into H240-Kn072 were prepared according to the method described in Reference Example 1.
as §2

[14] = molecular target: T4, FcgRIIIa V; remark: listed apart in the source
Description: as §3, §2

[15] = molecular target: T5, FcgRIa; remark: listed apart in the source
Description: as §3, §2

[16] = molecular target: T2, FcgRIIa R; remark: listed apart in the source
Description: as §3, §2

[17] = molecular target: T6, FcgRIIIa F; remark: listed apart in the source
Description: as §3, §2

[18] = molecular target: T3, FcgRIIb; remark: listed apart in the source
Description: as §3, §2

Binder	Kd [1]	Kd [2]	Kd [3]	Kd [4]	Kd [5]	Kd [6]	Kd [7]	Kd [8]	Kd [9]	Kd [10]	Kd [11]	Kd [12]	Kd [13]	Kd [14]	Kd [15]	Kd [16]	Kd [17]	Kd [18]
H240-Kn033/H240-Hl033/L73-k0 (antibody, human IgG1, kappa, Anti-epiregulin (EREG) IgG1 control with knobs-into-holes alterations only (Y349C/T366W in the knob chain; D356C/T366S/L368A/Y407V in the hole chain); also called H240-Kn033/H240-HI033/L73-k0) heavy 1: not shown heavy 2: not shown light: DIQMTQSPSSLSASVGDRVTITCRASQDIHKYIAWYQQKPGQAPRLLIQYTSTLQPGVPSRFSGSGSGTDYTFTISSLQPEDIATYYCLQYEQLRTFGGGTKVEIKRTVAAPSVFIFPPSDEQLKSGTASVVCLLNNFYPREAKVQWKVDNALQSGNSQESVTEQDSKDSTYSLSSTLTLSKADYEKHKVYACEVTHQGLSSPVTKSFNRGEC	930 nM	390 nM	0.25 nM	1000 nM	2600 nM	4200 nM	930 nM	390 nM	0.25 nM	1000 nM	2600 nM	4200 nM	930 nM	390 nM	0.25 nM	1000 nM	2600 nM	4200 nM
H240-Kn032/H240-Hl032/L73-k0 (antibody, human IgG1, kappa, Anti-EREG IgG1 called homodimerized: S239D/A330L/I332E in both H chains, on the knobs-into-holes pair Kn033/Hl033) heavy 1: QDQLVQSGAEVKKPGASVKVSCKASGFNIKDTYIQWVRQAPGQGLEWMGRIDPLRKQTKYREKFEGRVTITADTSTNTAYMELSSLRSEDTAVYYCVRSGREFDYWGQGTLVTVSSASTKGPSVFPLAPSSKSTSGGTAALGCLVKDYFPEPVTVSWNSGALTSGVHTFPAVLQSSGLYSLSSVVTVPSSSLGTQTYICNVNHKPSNTKVDKKVEPKSCDKTHTCPPCPAPELLGGPDVFLFPPKPKDTLMISRTPEVTCVVVDVSHEDPEVKFNWYVDGVEVHNAKTKPREEQYNSTYRVVSVLTVLHQDWLNGKEYKCKVSNKALPLPEEKTISKAKGQPREPQVCTLPPSRDELTKNQVSLWCLVKGFYPSDIAVEWESNGQPENNYKTTPPVLDSDGSFFLYSKLTVDKSRWQQGNVFSCSVMHEALHNHYTQKSLSLSP heavy 2: QDQLVQSGAEVKKPGASVKVSCKASGFNIKDTYIQWVRQAPGQGLEWMGRIDPLRKQTKYREKFEGRVTITADTSTNTAYMELSSLRSEDTAVYYCVRSGREFDYWGQGTLVTVSSASTKGPSVFPLAPSSKSTSGGTAALGCLVKDYFPEPVTVSWNSGALTSGVHTFPAVLQSSGLYSLSSVVTVPSSSLGTQTYICNVNHKPSNTKVDKKVEPKSCDKTHTCPPCPAPELLGGPDVFLFPPKPKDTLMISRTPEVTCVVVDVSHEDPEVKFNWYVDGVEVHNAKTKPREEQYNSTYRVVSVLTVLHQDWLNGKEYKCKVSNKALPLPEEKTISKAKGQPREPQVYTLPPSRCELTKNQVSLSCAVKGFYPSDIAVEWESNGQPENNYKTTPPVLDSDGSFFLVSKLTVDKSRWQQGNVFSCSVMHEALHNHYTQKSLSLSP light: DIQMTQSPSSLSASVGDRVTITCRASQDIHKYIAWYQQKPGQAPRLLIQYTSTLQPGVPSRFSGSGSGTDYTFTISSLQPEDIATYYCLQYEQLRTFGGGTKVEIKRTVAAPSVFIFPPSDEQLKSGTASVVCLLNNFYPREAKVQWKVDNALQSGNSQESVTEQDSKDSTYSLSSTLTLSKADYEKHKVYACEVTHQGLSSPVTKSFNRGEC	690 nM	3.1 nM	0.073 nM	340 nM	9.1 nM	630 nM	690 nM	3.1 nM	0.073 nM	340 nM	9.1 nM	630 nM	690 nM	3.1 nM	0.073 nM	340 nM	9.1 nM	630 nM
H240-Kn072/H240-Hl076/L73-k0 (antibody, human IgG1, kappa, Heterodimerized anti-EREG IgG1: D270E introduced into both H chains of H240-Kn061/H240-Hl071/L73-k0) heavy 1: QDQLVQSGAEVKKPGASVKVSCKASGFNIKDTYIQWVRQAPGQGLEWMGRIDPLRKQTKYREKFEGRVTITADTSTNTAYMELSSLRSEDTAVYYCVRSGREFDYWGQGTLVTVSSASTKGPSVFPLAPSSKSTSGGTAALGCLVKDYFPEPVTVSWNSGALTSGVHTFPAVLQSSGLYSLSSVVTVPSSSLGTQTYICNVNHKPSNTKVDKKVEPKSCDKTHTCPPCPAPEYYWGPSVFLFPPKPKDTLMISRTPEVTCVVVDVSDEEPEVKFNWYVDGVEVHNAKTKPREEQYNATYRVVSVLTVLHQDWLNGKEYKCKVSNKALPAPIEKTISKAKGQPREPQVCTLPPSRDELTKNQVSLWCLVKGFYPSDIAVEWESNGQPENNYKTTPPVLDSDGSFFLYSKLTVDKSRWQQGNVFSCSVMHEALHNHYTQKSLSLSP heavy 2: QDQLVQSGAEVKKPGASVKVSCKASGFNIKDTYIQWVRQAPGQGLEWMGRIDPLRKQTKYREKFEGRVTITADTSTNTAYMELSSLRSEDTAVYYCVRSGREFDYWGQGTLVTVSSASTKGPSVFPLAPSSKSTSGGTAALGCLVKDYFPEPVTVSWNSGALTSGVHTFPAVLQSSGLYSLSSVVTVPSSSLGTQTYICNVNHKPSNTKVDKKVEPKSCDKTHTCPPCPAPELLGGPSVFLFPPKPKDTLMISRTPEVTCVVVDVSHEEPEVKFNWYVDGVEVHNAKTKPREEQYNSTYRVVSVLTVLHQDWLNGKEYKCKVSNDALPMPIEETISKAKGQPREPQVYTLPPSRCELTKNQVSLSCAVKGFYPSDIAVEWESNGQPENNYKTTPPVLDSDGSFFLVSKLTVDKSRWQQGNVFSCSVMHEALHNHYTQKSLSLSP light: DIQMTQSPSSLSASVGDRVTITCRASQDIHKYIAWYQQKPGQAPRLLIQYTSTLQPGVPSRFSGSGSGTDYTFTISSLQPEDIATYYCLQYEQLRTFGGGTKVEIKRTVAAPSVFIFPPSDEQLKSGTASVVCLLNNFYPREAKVQWKVDNALQSGNSQESVTEQDSKDSTYSLSSTLTLSKADYEKHKVYACEVTHQGLSSPVTKSFNRGEC	130 nM	1 nM	0.1 nM	710 nM	2.6 nM	5700 nM							130 nM	1 nM	0.1 nM	710 nM	2.6 nM	5700 nM
